Measurements reported in patent US20240425609A1.
Blank lines part the entries; values can stand above or below the substance they belong to.

How the values were obtained:
human CD22 (human) = human CD22 (human) (UniProt P20273); assay: cell-based or functional assay
human CD3 (human) = assay: cell-based or functional assay
mouse PD1 (mouse) = mouse PD1 (mouse) (UniProt Q02242); assay: cell-based or functional assay
mouse CD20 (mouse) = mouse CD20 (mouse) (UniProt P19437); assay: flow cytometry on MC38/mCD20 cells
Sequence of mouse CD20 (mouse) (P19437 whole entry): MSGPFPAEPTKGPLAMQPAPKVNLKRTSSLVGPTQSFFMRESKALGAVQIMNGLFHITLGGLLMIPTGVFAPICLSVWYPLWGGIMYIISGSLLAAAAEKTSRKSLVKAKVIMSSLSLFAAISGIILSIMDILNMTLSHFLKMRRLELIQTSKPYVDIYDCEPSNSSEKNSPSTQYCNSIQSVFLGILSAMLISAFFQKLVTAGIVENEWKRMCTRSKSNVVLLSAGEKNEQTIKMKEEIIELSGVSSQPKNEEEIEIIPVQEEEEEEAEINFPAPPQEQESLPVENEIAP

Sequence of human CD22 (human) (P20273 20-847): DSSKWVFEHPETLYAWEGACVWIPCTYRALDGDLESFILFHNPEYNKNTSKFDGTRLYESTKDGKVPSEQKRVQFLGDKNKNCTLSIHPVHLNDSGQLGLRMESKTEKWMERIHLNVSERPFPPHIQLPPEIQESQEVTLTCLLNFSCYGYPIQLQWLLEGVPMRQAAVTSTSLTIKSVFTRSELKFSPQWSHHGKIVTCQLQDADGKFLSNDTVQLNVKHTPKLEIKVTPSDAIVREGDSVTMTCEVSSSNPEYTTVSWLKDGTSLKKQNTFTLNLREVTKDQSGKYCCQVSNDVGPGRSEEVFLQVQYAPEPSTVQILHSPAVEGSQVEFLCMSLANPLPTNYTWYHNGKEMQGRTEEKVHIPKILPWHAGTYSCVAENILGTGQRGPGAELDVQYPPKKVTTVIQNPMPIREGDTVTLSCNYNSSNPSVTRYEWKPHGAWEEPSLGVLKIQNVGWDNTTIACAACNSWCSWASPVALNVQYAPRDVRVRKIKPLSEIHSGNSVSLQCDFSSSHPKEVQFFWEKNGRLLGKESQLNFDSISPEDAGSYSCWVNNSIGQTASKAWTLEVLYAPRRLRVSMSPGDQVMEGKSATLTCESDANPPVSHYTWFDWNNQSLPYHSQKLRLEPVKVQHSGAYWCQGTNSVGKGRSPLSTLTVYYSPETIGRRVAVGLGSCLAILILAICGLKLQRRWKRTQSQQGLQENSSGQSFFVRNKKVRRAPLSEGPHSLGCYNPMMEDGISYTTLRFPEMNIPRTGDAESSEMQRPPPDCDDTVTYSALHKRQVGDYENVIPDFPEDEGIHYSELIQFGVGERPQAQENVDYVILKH
Sequence of mouse PD1 (mouse) (Q02242 25-288): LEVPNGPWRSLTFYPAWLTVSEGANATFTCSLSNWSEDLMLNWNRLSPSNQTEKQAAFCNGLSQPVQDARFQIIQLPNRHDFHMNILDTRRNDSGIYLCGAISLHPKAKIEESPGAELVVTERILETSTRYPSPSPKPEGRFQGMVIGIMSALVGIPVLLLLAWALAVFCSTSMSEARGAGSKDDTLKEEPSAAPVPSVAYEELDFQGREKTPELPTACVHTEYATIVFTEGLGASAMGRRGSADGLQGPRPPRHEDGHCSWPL

- EC50, activation of T cell signaling (AP1-luciferase), run with 1 nM CD3 bsAb (human CD22 (human)): 1.15 nM
- EC50, activation of T cell signaling (AP1-luciferase), run with 2.5 nM CD3 bsAb (human CD22 (human)): 0.627 nM
- EC50, activation of T cell signaling (AP1-luciferase), run with 1 nM CD3 bsAb (human CD3 (human)): 1.15 nM
- EC50, activation of T cell signaling (AP1-luciferase), run with 2.5 nM CD3 bsAb (human CD3 (human)): 0.627 nM
Substance: CD3 bsAb (REGN10551) (bispecific antibody)

- Max % inhibition, AP1-luciferase bioassay, 2.5 nM CD3 bsAb (mouse PD1 (mouse)): 3%
Substance: REGN1932 (hIgG1 control) (antibody)

- Max MFI (mouse CD20 (mouse)): 94.9 MFI
Substance: Single arm mPDL1 WT-Fc (Fc fusion)
